Data reported in patent US12365710B2, “HMGB1 protein derivatives for the removal of biofilms” (RESEARCH INSTITUTE AT NATIONWIDE CHILDREN'S HOSPITAL, priority 2018, dated 2025).
Like-named read-outs stand apart in the source and are kept apart here.

How the values were obtained:
B. cenocepacia = type: in vivo, C57BL/6 mice; conditions: 0.2 nmol administered 24 h after challenge, collected 48 h after treatment
Protocol: (§1) FIGS. 7A-7G: HMGB1 promotes clearance of S. cenocepaca from mice without inducing sepsis. C57BL/6 mice were challenged with 10^7 CFU intratracheally, and either simultaneously (prevention) or 24 h later (treatment) received 0.2 nmol of HMGB1 valiant. (FIG. 7A) Aggregates of B. cenocepacia were visible by fluorescence microscopy in lung sections probed with an α-B. cenocepacia antibody. For prevention, (FIG. 7B) bronchoalveolar lavage (BAL) collected 18 h post-inoculation (hpi) was analyzed for CFU. (FIG. 7C) Neutrophils in BAL were quantified by differential cell counting. (FIG. 7D) Lung tissue collected 72hpi was fixed, embedded, sectioned, and stained with hematoxylin & eosin (10× magnification). For treatment, 72hpi (FIG. 7E) CFUs were quantified in BAL. (FIG. 7F) Neutrophil recruitment was analyzed 24 h after intraperitoneal (i.p.) administration of HMGB1 valiants by fluorescence-activated cell sorting of peritoneal lavage stained with α-CD45, α-CD11b, and αLy-6G. (FIG. 7G) Serum TNF-α. was measured by ELISA in mice injected i.p. with 0.2 nmol HMGB1 valiants, 5 mg/kg LPS, or both. LoD: limit of detection. Bars represent SD. *P<0.05.
rHMGB1 and mHMGB1 disrupt biofilms in two distinct animal models but the inflammatory response is strongly attenuated with Cys to Ser mutations: Applicant tested both rHMGB1 and mHMGB1 for their ability to treat middle ear infection and the corresponding inflammatory response using a well-established chinchilla model of experimental OM due to NTHI49,67,68 wherein adhered mucosal biofilm formation plays a key role in pathogenesis (FIG. 8A). […] On day 6, animals were sacrificed and middle ears were imaged and blindly scored for biofilm that remained (FIG. 8A) and mucosal inflammation (FIG. 8B). […] Next, Applicant determined whether rHMGB1 or mHMGB1 could prevent or aggregate biofilm development. […] Bc formed aggregates that were readily visible in lung sections probed with Bc antibody (FIG. 7A). […] Next, Applicant assessed the ability of rHMGB1 and mHMGB1 to treat established Bc infection. […]

serum TNF-alpha (TNF-α) = type: in vivo, mice; conditions: 24 h; for serum TNF elicited on their own: 0.2 nmol endotoxin free protein i.p., naive mice; for additional pro-inflammatory signaling in LPS-primed mice: 0.2 nmol i.p. with LPS 5 mg/kg
Protocol: as §1
Mice were monitored for 24 h for signs of sepsis, then serum TNF-alpha (TNF-α) levels were measured by ELISA as a surrogate for sepsis induction. […] It has been reported, that compared to our doses, >450-fold for B Box alone, or 4 doses of 2-fold greater amounts of rHMGB1 in 40 h with lipopolysaccharide (LPS)-primed mice20 are required to induce sepsis. In addition, these endotoxin-free polypeptides were tested for anti-biofilm activity in vitro as described above and found to maintain full function against UPEC and Bc biofilms (data not shown).

| Molecule | Bc CFU in lungs / BAL (B. cenocepacia) | Bc CFU in lungs / BAL (B. cenocepacia; listed as HMGB1) | serum TNF elicited on their own (serum TNF-alpha (TNF-α)) | additional pro-inflammatory signaling in LPS-primed mice (serum TNF-alpha (TNF-α)) |
| --- | --- | --- | --- | --- |
| rHMGB1: tagless human recombinant full length HMGB1 (1-215) expressed in E. coli | significantly fewer Bc in their lungs | significantly decreased | neither rHMGB1, B Box, nor mB Box elicited detectable TNF | none induced additional pro-inflammatory signaling |
| B-linker Box: HMGB1 B Box with N- and C-terminal linker (80-179; 80 to 176 in b258), 97 amino acid (protein, UniProt P09429 80-179, looked up, fragment) PPKGETKKKFKDPNAPKRPPSAFFLFCSEYRPKIKGEHPGLSIGDVAKKLGEMWNNTAADDKQPYEKKAAKLKEKYEKDIAAYRAKGKPDAAKKGVVKAE | – | – | neither rHMGB1, B Box, nor mB Box elicited detectable TNF | none induced additional pro-inflammatory signaling |
| mHMGB1: engineered C45S variant of full length rHMGB1 that mimics the reduced form of HMGB1 (protein, UniProt P09429 1-215, looked up, variant C45S, full-length, engineered C45S variant of full length rHMGB1 that mimics the reduced form of HMGB1) MGKGDPKKPRGKMSSYAFFVQTCREEHKKKHPDASVNFSEFSKKSSERWKTMSAKEKGKFEDMAKADKARYEREMKTYIPPKGETKKKFKDPNAPKRPPSAFFLFCSEYRPKIKGEHPGLSIGDVAKKLGEMWNNTAADDKQPYEKKAAKLKEKYEKDIAAYRAKGKPDAAKKGVVKAEKSKKKKEEEEDEEDEEDEEEEEDEEDEDEEEDDDDE | significantly fewer Bc in their lungs | – | – | – |
